From article PMC10397247

Tests used:
Assay in all cases: two-hybrid library CCNG1;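 also: natural log of median RNA to DNA barcode read ratio; higher means stronger binding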
4H1081-bA = target: T1, 4H1081-bA; conditions: mean of both orientations
T1 chain: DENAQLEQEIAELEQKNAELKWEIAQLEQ

4H112-bA = target: T2, 4H112-bA
T2 chain: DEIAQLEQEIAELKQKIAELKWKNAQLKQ

4H1158-bA = target: T3, 4H1158-bA
T3 chain: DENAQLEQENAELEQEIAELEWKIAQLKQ

4H118-bA = target: T4, 4H118-bA
T4 chain: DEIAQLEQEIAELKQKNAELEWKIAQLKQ

4H1348-bA = target: T5, 4H1348-bA
T5 chain: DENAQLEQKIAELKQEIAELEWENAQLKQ

4H1373-bA = target: T6, 4H1373-bA
T6 chain: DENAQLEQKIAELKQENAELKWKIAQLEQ

4H1544-bA = target: T7, 4H1544-bA
T7 chain: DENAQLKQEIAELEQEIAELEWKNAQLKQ

4H170-bA = target: T8, 4H170-bA
T8 chain: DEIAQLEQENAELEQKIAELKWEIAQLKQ

4H1710-bA = target: T9, 4H1710-bA
T9 chain: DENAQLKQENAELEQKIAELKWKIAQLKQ

4H1831-bA = target: T10, 4H1831-bA
T10 chain: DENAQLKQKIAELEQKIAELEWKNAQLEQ

4H1899-bA = target: T11, 4H1899-bA
T11 chain: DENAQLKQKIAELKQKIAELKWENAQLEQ

4H1985-bA = target: T12, 4H1985-bA
T12 chain: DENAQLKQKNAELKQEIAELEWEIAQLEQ

4H2586-bA = target: T13, 4H2586-bA
T13 chain: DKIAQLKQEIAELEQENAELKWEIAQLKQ

4H2627-bA = target: T14, 4H2627-bA
T14 chain: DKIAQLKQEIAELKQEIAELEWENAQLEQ

4H2673-bA = target: T15, 4H2673-bA
T15 chain: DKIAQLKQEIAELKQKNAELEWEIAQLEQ

4H2702-bA = target: T16, 4H2702-bA
T16 chain: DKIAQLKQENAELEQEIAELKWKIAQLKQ

4H3010-bA = target: T17, 4H3010-bA
T17 chain: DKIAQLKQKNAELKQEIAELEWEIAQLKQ

4H3112-bA = target: T18, 4H3112-bA
T18 chain: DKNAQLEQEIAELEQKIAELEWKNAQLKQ

4H3162-bA = target: T19, 4H3162-bA
T19 chain: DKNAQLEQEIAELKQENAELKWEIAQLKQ

4H3175-bA = target: T20, 4H3175-bA
T20 chain: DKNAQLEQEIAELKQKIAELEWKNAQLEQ

4H3277-bA = target: T21, 4H3277-bA
T21 chain: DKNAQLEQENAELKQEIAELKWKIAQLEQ

4H3298-bA = target: T22, 4H3298-bA
T22 chain: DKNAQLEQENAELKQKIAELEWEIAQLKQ

4H3427-bA = target: T23, 4H3427-bA
T23 chain: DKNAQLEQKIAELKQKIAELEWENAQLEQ

4H346-bA = target: T24, 4H346-bA
T24 chain: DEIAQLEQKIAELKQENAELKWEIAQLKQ

4H3462-bA = target: T25, 4H3462-bA
T25 chain: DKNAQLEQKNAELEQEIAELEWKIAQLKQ

4H3497-bA = target: T26, 4H3497-bA
T26 chain: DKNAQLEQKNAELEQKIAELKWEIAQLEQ

4H3613-bA = target: T27, 4H3613-bA
T27 chain: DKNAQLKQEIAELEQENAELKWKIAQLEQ

4H3628-bA = target: T28, 4H3628-bA
T28 chain: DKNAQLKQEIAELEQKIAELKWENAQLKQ

4H3926-bA = target: T29, 4H3926-bA; conditions: mean of both orientations
T29 chain: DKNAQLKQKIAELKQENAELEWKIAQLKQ

4H4073-bA = target: T30, 4H4073-bA
T30 chain: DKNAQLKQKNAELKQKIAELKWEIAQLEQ

4H457-bA = target: T31, 4H457-bA
T31 chain: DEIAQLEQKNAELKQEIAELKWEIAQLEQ

4H575-bA = target: T32, 4H575-bA
T32 chain: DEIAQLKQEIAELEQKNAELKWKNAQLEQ

4H591-bA = target: T33, 4H591-bA
T33 chain: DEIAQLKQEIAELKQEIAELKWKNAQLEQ

4H626-bA = target: T34, 4H626-bA
T34 chain: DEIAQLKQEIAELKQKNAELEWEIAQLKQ

4H683-bA = target: T35, 4H683-bA
T35 chain: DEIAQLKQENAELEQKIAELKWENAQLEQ

4H754-bA = target: T36, 4H754-bA
T36 chain: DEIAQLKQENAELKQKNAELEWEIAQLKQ

4H780-bA = target: T37, 4H780-bA
T37 chain: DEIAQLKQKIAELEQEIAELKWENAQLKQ

4H797-bA = target: T38, 4H797-bA
T38 chain: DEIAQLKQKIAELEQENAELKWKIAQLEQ

4H855-bA = target: T39, 4H855-bA
T39 chain: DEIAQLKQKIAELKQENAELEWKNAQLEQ

4H906-bA = target: T40, 4H906-bA
T40 chain: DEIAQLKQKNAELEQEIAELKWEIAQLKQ

4H918-bA = target: T41, 4H918-bA
T41 chain: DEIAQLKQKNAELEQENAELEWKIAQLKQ

4H953-bA = target: T42, 4H953-bA
T42 chain: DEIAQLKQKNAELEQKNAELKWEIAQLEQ

4H968-bA = target: T43, 4H968-bA
T43 chain: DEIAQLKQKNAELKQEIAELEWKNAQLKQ

O6 = target: T44, O6
T44 chain: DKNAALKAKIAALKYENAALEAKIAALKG

P8SHb = target: T45, P8SHb
T45 chain: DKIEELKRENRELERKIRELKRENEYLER

DENAQLEQEIAELEQKNAELKWEIAQLEQ [4H1081-bA] was tested, and the interaction score (4H1081-bA) was -1.09, the interaction score (4H112-bA) was -0.18 and the interaction score (4H1158-bA) was -1.28. For the same binder, the interaction score (4H118-bA) was -0.618, the interaction score (4H1348-bA) was -0.834 and the interaction score (4H1373-bA) was -0.306. The interaction score (4H1544-bA) was -0.272, the interaction score (4H170-bA) was -0.98 and the interaction score (4H1710-bA) was -1.02. The interaction score (4H1831-bA) was -0.839, the interaction score (4H1899-bA) was -0.763 and the interaction score (4H1985-bA) was -0.96. For the same binder, the interaction score (4H2586-bA) was -1, the interaction score (4H2627-bA) was -0.693 and the interaction score (4H2673-bA) was -0.717. For the same binder, the interaction score (4H2702-bA) was 0.457, the interaction score (4H3010-bA) was -0.178 and the interaction score (4H3112-bA) was -0.897. For the same binder, the interaction score (4H3162-bA) was -0.581, the interaction score (4H3175-bA) was -1.47 and the interaction score (4H3277-bA) was -0.575. The interaction score (4H3298-bA) was -0.916, the interaction score (4H3427-bA) was -0.645 and the interaction score (4H346-bA) was -0.753. It also gave an interaction score (4H3462-bA) of -0.859, an interaction score (4H3497-bA) of -1.1 and an interaction score (4H3613-bA) of -0.495. For the same binder, the interaction score (4H3628-bA) was -1.07, the interaction score (4H3926-bA) was 2.57 and the interaction score (4H4073-bA) was -0.497. It also gave an interaction score (4H457-bA) of -0.799, an interaction score (4H575-bA) of -1.21 and an interaction score (4H591-bA) of -0.855. The interaction score (4H626-bA) was -0.689, the interaction score (4H683-bA) was -0.217 and the interaction score (4H754-bA) was -0.461. It also gave an interaction score (4H780-bA) of -0.865, an interaction score (4H797-bA) of -1.17 and an interaction score (4H855-bA) of -0.154. For the same binder, the interaction score (4H906-bA) was -0.875, the interaction score (4H918-bA) was -0.671 and the interaction score (4H953-bA) was -1.23. It also gave an interaction score (4H968-bA) of -1.8, an interaction score (O6) of 1.04 and an interaction score (P8SHb) of -1.25.
